Biological target: T1, PDZ2 domain of human tyrosine phosphatase 1E (hPTP1E) (human, UniProt Q12923 1361-1456)
T1 construct: PDZ2 domain of human tyrosine phosphatase 1E (hPTP1E); Uniformly 15N- or 15N,13C-enriched for NMR; also called apo PDZ2; holo PDZ2; source: E. coli BL21 (DE3), purified (Ni-NTA, tag cleaved with HRV-3C protease, second Ni-NTA pass); not shown: polyhistidine, N-terminal, cleaved
T1 sequence: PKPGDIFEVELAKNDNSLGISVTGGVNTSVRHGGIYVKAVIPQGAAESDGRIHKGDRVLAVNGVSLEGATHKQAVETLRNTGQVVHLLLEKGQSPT
Experiment: NMR titration; [1H,15N]-HSQC of uniformly 15N-enriched PDZ2, free and with the peptide in twofold excess; 298 K; 150 mM sodium chloride, 50 mM phosphate buffer pH 6.8; chemical shift perturbation
Settings: both partners purified

binding result: binds
B1: C-terminal eight-residue peptide derived from the Ras-associated guanine nucleotide exchange factor 2 (RA-GEF2) (peptide)
peptide: Ac-ENEQVSAV-OH
notes: the eight C-terminal residues of Ras-associated / Rap guanine nucleotide exchange factor 2 (RA-GEF2); also called RA-GEF2 peptide; source: synthetic peptide, bought: BACHEM

From article PMC9584909, “Atomic resolution protein allostery from the multi-state structure of a PDZ domain” (Nature Communications, 2022)
